Where no end group is shown, it is not given here. Me3 = N6,N6,N6-trimethyl (lysine)

For assay [1], the target named is T1, 15N-labeled ZZZ3-ZZ F821A used in NMR titrations (human).
T1 chain: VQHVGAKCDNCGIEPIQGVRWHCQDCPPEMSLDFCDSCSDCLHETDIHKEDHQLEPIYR
Nature of the assay: NMR.

Assay [2] addresses T2, 15N-labeled WT ZZZ3-ZZ used in NMR titrations (human).
T2 chain: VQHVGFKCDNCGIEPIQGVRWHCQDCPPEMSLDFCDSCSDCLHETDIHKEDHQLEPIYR
Nature of the assay: NMR.

Another assay deals with T3, H3K4me3 (1-12) peptide (Homo sapiens).
T3 chain: H-ARTK(Me3)QTARKSTG
The experiment in a line: tryptophan fluorescence.

Turning to ARTK(Ac)QTAR [H3K4ac peptide of the tryptophan fluorescence and NMR titration experiments], the Kd in assay [1] amounted to 480 µM; in assay [2], 14 µM.

B1: ZZZ3 ZZ domain (aa 800–903), GST cleaved (domain or fragment)
chain: KLKKQKLQQMQAESGFVQHVGFKCDNCGIEPIQGVRWHCQDCPPEMSLDFCDSCSDCLHETDIHKEDHQLEPIYRSETFLDRDYCVSQGTSYNYLDPNYFPANR
In the assay with H3K4me3 (1-12) peptide, B1 came in with an equilibrium dissociation constant (Kd) of 22 µM. For the molecule ARTKQTARKSTG [unmodified H3 peptide of the tryptophan fluorescence and NMR titration experiments], the figures for the dissociation constant (Kd) in assay [1] and in assay [2] were 400 µM and 42 µM, respectively.
